The target in test [1] is Human Respiratory Syncytial Virus Matrix (M) protein, GAL4 fusion (Human Respiratory Syncytial Virus) (UniProt P0DOE7). In words: two-hybrid.
In test [2] the target is Adaptor protein complex 3 medium subunit (AP-3Mu3A), GAL4 fusion (human (HeLa cDNA library)) (UniProt Q9Y2T2). As to the kind of experiment: two-hybrid.

The values that follow come from PMC5640227.

Chain of UniProt Q9Y2T2 (Q9Y2T2 whole entry, the tested form may be a part, one chain of several): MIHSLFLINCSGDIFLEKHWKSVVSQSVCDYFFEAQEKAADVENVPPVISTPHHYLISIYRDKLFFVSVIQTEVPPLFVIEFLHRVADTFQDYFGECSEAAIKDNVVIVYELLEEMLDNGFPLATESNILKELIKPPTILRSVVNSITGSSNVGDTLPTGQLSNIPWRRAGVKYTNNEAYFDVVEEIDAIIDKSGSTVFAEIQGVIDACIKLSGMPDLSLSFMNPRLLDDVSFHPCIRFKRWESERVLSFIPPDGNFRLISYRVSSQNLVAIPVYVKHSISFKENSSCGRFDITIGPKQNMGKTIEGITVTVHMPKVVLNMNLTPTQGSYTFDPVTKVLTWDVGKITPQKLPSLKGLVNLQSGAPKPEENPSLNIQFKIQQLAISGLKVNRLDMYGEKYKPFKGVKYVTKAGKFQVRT

For the molecule “Adaptor protein complex 3 medium subunit (AP-3Mu3A), GAL4 fusion (from UniProt Q9Y2T2 1-418) (natural protein)”, the beta-Galactosidase activity in test [1] turned out to be 458 units.

B1: Human Respiratory Syncytial Virus Matrix (M) protein, GAL4 fusion (natural protein)
chain: METYVNKLHEGSTYTAAVQYNVLEKDDDPASLTIWVPMFQSSMPADLLIKELANVNILVKQISTPKGPSLRVMINSRSAVLAQMPSKFTICANVSLDERSKLAYDVTTPCEIKACSLTCLKSKNMLTTVKDLTMKTLNPTHDIIALCEFENIVTSKKVIIPTYLRSISVRNKDLNTLENITTTEFKNAITNAKIIPYSGLLLVITVTDNKGAFKYIKPQSQFIVDLGAYLEKESIYYVTTNWKHTATRFAIKPMED
B1 displayed a beta-Galactosidase activity in test [2] of 420 units.
